Test results taken from publication PMC13245265.

Target: Tectus dentatus superoxide dismutase 1 (Tectus dentatus)
Assay: SEC

Substance: Tectus dentatus superoxide dismutase 1 (enzyme)
- stoichiometry N: 2
